± gives the standard deviation.
Assay: protein stability index of a GFP-peptide fusion (GPS, HEK-293T) (PSI 1-6); higher = more stable
[1] = treatment: DMSO, c terminus: a fixed tail appended
[2] = treatment: MLN4924 1 uM, 8 h, c terminus: a fixed tail appended
[3] = treatment: DMSO, c terminus: native
[4] = treatment: MLN4924 1 uM, 8 h, c terminus: native
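Also: 24-mer peptide tiles fused after GFP, lentivirally expressed, FACS-sorted into six equal bins by GFP/DsRed ratio, decoded by Illumina sequencing, PSI is the read-weighted mean bin number.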

| Sequence | protein stability index [1] | protein stability index [2] | protein stability index [3] | protein stability index [4] |
| --- | --- | --- | --- | --- |
| SWVLSMLYGFLLTFGFITMTPQLF [CLPTM1] | 3.21 ± 0.47 | 3.03 ± 0.16 |  |  |
| LLVGRYPFHDSDPSALFSKIRRGQ [TRIB1] | 2.22 ± 0.23 | 2.46 ± 0.53 |  |  |
| RAFAQIGPARSGFRLETLAGLRSR [MIR22HG] | 3.23 ± 0.53 | 3.2 ± 0.3 |  |  |
| VNPFQLQQFRADPSTASLLLCPGG [TIAF1] | 2.93 ± 0.11 | 2.78 ± 0.14 |  |  |
| QQREKLSLIRKHAQTFIALCATDF [CCND2] | 2.25 ± 0.22 | 2.44 ± 0.13 |  |  |
| DRTSLATFHEGKHNISHMSMDIAR [WDFY1] | 3.54 ± 0.24 | 3.56 ± 0.33 |  |  |
| DPKITCKQECLITTFQDVYFVSES [TPH1] | 2.5 ± 0.36 | 2.14 ± 0.49 |  |  |
| TPEVAAAPKPDAAPSIDLFSTDAF [SNAP91] | 4.75 ± 0.23 | 4.75 ± 0.12 |  |  |
| IPDAFWWAVVTMTTVGYGDMKPIT [KCNA4] | 3.8 ± 0.42 | 3.53 ± 0.16 |  |  |
| HHPENGEETVTMLEDVERELDGPK [ZNF396] | 5.51 ± 0.13 | 5.49 ± 0.15 |  |  |
| LGKESFYDTFHTVADMMYFCQMLA [HACD3] | 2.56 ± 0.92 | 3.15 ± 0.99 |  |  |
| ICKSDAPTGDVLLDEALKHVKETQ [GOLPH3] | 4.64 ± 0.3 | 4.72 ± 0.16 |  |  |
| FGHVMHQICAQVSFFFPPVNLPIS [NLN] | 2.71 ± 0.69 | 3.42 ± 0.31 |  |  |
| PSSFDPSMLLQRFSVAPHETQTQR [RNF180] | 4.12 ± 0.14 | 3.95 ± 0.13 |  |  |
| EPPPPLHNNNNNCEENEQSLPPPA [BNIP3L] | 5.51 ± 0.27 | 5.68 ± 0.13 |  |  |
| KFDHIEVRDGPFGFSPIIGRFCGQ [NETO1] | 2.3 ± 0.28 | 2.44 ± 0.34 |  |  |
| CLRDDVVFFIYLYQRWIYRVDPTR [CLPTM1] | 2.77 ± 0.35 | 2.81 ± 0.48 |  |  |
| GLLAGVGYFAFMLFRKRLGSMILA [GDAP1] | 1.99 ± 0.082 | 2.37 ± 0.41 |  |  |
| PAGTPPPTARHFQEHPRQQLATSS [MOSPD3] | 4.74 ± 0.27 | 4.83 ± 0.17 |  |  |
| KRKMVSWEASSLGLVTAALHMVIV [KMT2E] | 2.53 ± 0.62 | 3.33 ± 0.57 |  |  |
| NLQPPASLQTGNHSNGPTDLSMKG [NOL4L] | 4.66 ± 0.25 | 4.61 ± 0.21 |  |  |
| VLKDELQLYGDAPGEVVPSGESGL [TMEM40] | 5.14 ± 0.24 | 5.26 ± 0.23 |  |  |
| WSGEVKDKNVQVVELPIVDSLHPR [FUT8] | 4.17 ± 0.17 | 4.29 ± 0.15 |  |  |

| Sequence | protein stability index [1] | protein stability index [2] | protein stability index [3] | protein stability index [4] |
| --- | --- | --- | --- | --- |
| QIRDWRGGRLENQKPRGLEGGVLR [ZSWIM9] | 3.3 ± 0.54 | 3.57 ± 0.15 |  |  |
| NPSQKTGQALLTHLYQSSARRYAG [ELAVL3] | 3.58 ± 0.23 | 3.4 ± 0.36 |  |  |
| TRIFTEDRFAQDSEMKKCSDYESI [PPEF2] | 4.42 ± 0.098 | 4.25 ± 0.18 |  |  |
| IIIRSEVPGIFCAGADLKERAKMS [AUH] | 2.36 ± 0.43 | 1.95 ± 0.21 |  |  |
| QARRQQVKQYLSTTLGPKLASQAL [TFE3] | 2.95 ± 0.51 | 2.9 ± 0.23 |  |  |
| AEKLKVQALKDRGLSIPRADTLDE [LSM1] | 4.93 ± 0.3 | 4.98 ± 0.22 |  |  |
| GISALVEIPKNCVVAAVGKELIIF [WDR41] | 2.01 ± 1.1 | 2.69 ± 1.3 |  |  |
| SEDSFCRRHPGLGKAFPSGCSAVS [TRAF3IP2] | 3.66 ± 0.24 | 3.46 ± 0.33 |  |  |
| EKAHECTDCGKAFLKKSQLTEHKR [ZNF649] | 3.54 ± 0.29 | 3.81 ± 0.38 |  |  |
| RKKRLLDRKVLLKSDSPTGDVLLD [GOLPH3L] | 4.22 ± 0.14 | 4.14 ± 0.19 |  |  |
| RKILVLDLDETLIHSHHDGVLRPT [CTDNEP1] | 2.46 ± 0.2 | 2.61 ± 0.17 |  |  |
| DKTCSKTKNKSKHALRKKQLKRQK [FAM9B] | 4.49 ± 0.21 | 4.59 ± 0.23 |  |  |
| AYDWVGRPIPTPVGSVHVDSGASA [CSNK1G1] | 3.94 ± 0.29 | 4.08 ± 0.16 |  |  |
| LKSLDKEISEAFTSTGFDRHTSPV [BCL2L13] | 3.98 ± 0.36 | 4.12 ± 0.44 |  |  |
| AEKKREAKQRAKEAQERELRKREK [LRRC59] | 5.38 ± 0.12 | 5.33 ± 0.11 |  |  |
| RLEINVLKKIKEKDKENKFLCVLM [CLK3] | 2.57 ± 0.52 | 2.1 ± 0.082 |  |  |
| MYDLPKKEDALLYQSKGYNDDYYE [EMD] | 4.27 ± 0.15 | 4.25 ± 0.22 |  |  |
| AQTTSEAAMEGATLDQTTSEEAPG [HDAC6] | 5.64 ± 0.28 | 5.54 ± 0.24 |  |  |
| RETVLIETQLKACASFIRTRLLLQ [C8orf76] | 2.88 ± 0.57 | 2.9 ± 0.71 |  |  |
| AKGKVQAELSQPLTAGGAISELL [RBBP5] |  |  | 4.18 ± 0.3 | 3.91 ± 0.34 |
| FSETHADPHNSRRGFFFSHVGWLL [SCD] | 2.66 ± 0.29 | 2.15 ± 0.21 |  |  |
| LLRLSKHGPGHETPMTIPEFFRES [ACSBG2] | 2.73 ± 0.1 | 3.06 ± 0.25 |  |  |
| VYLANQAKNQSDEAKEAKGSGYEK [RTP4] | 4.96 ± 0.52 | 5.08 ± 0.21 |  |  |

| Sequence | protein stability index [1] | protein stability index [2] | protein stability index [3] | protein stability index [4] |
| --- | --- | --- | --- | --- |
| APNAWQVIKGVLFRIFIIWAISSW [CLPTM1] | 2.94 ± 0.19 | 2.89 ± 0.53 |  |  |
| SSWPFSIQDVVQPLTLQVQRPLVS [AUP1] | 2.77 ± 0.32 | 3.03 ± 0.2 |  |  |
| QWGTVCDDDFSIHAAHVVCRELGY [LOXL2] | 2.47 ± 0.36 | 2.38 ± 0.39 |  |  |
| EGNECKKMDMSVLEISGIIMSRVN [PHTF1] | 2.55 ± 0.37 | 2.46 ± 0.31 |  |  |
| IHQESGKAPSTDDATWAAVAACTK [C10orf62] | 4.56 ± 0.18 | 4.72 ± 0.32 |  |  |
| QHKTCMLNATSKFMEFYQDVKDWW [EDNRA] | 2.6 ± 0.74 | 2.89 ± 0.36 |  |  |
| KKLEKYLQKLSALLMTADILAETG [ELOA2] | 2.74 ± 0.79 | 2.6 ± 0.055 |  |  |
| EMGGSEGIVESIQIMKEGKATASE [NETO1] | 5.58 ± 0.21 | 5.611 ± 0.038 |  |  |
| YSECIVTVGGEERVSRKPTAAMRC [GAN] | 3.56 ± 0.32 | 3.85 ± 0.66 |  |  |
| YSAAALQEAMKRLRGAKAFRLPGL [FCHO1] | 2.3 ± 0.076 | 2.42 ± 0.2 |  |  |
| GMPSSLAHRIAAQTLLGTAKMLLH [PYCR3] | 2.4 ± 1.2 | 2.29 ± 0.3 |  |  |
| TIIEPAGESDNPLRFTSGLVVALD [INTS4] | 3.07 ± 0.37 | 3.24 ± 0.54 |  |  |
| DKPSEPASEEGSESEGSESSGRSC [SMG5] | 5.56 ± 0.25 | 5.6 ± 0.14 |  |  |
| ADSEQADIARMLYKDTCHELDELQ [ZMYND11] | 5.14 ± 0.24 | 4.99 ± 0.2 |  |  |
| KLEEVVNKKHGEAEKKKPKTQIVC [ZC3H15] | 4.64 ± 0.18 | 4.63 ± 0.24 |  |  |
| KYGGPNHHLPLPDNWKSQVEPETR [CPN1] | 4.16 ± 0.3 | 4.55 ± 0.28 |  |  |
| QYVYIAVMDYLPISSTSTKRTYWP [PLD5] | 3.01 ± 0.59 | 2.74 ± 0.29 |  |  |
| NIADIEEKRGFTSHFVFVIEVKTK [NCF4] | 2.47 ± 0.74 | 2.62 ± 0.44 |  |  |
| LQRNPKHELTAKYLNYYQGMLDVA [P3H4] | 2.3 ± 0.13 | 2.39 ± 0.41 |  |  |
| RAEIENLHRTFDPHFLRVPCWKIT [MOG] | 2.27 ± 0.22 | 2.42 ± 0.22 |  |  |
| FLIPMLEMVPEKRASAGECLRHPW [SRPK2] | 2.33 ± 0.26 | 2.2 ± 0.12 |  |  |
| RYSCESRIRSYLREVSSYPSTVGA [DFFB] | 2.6 ± 0.27 | 2.73 ± 0.46 |  |  |
| VPWSQCLQNFLLHGTKNVTNSSSL [WSB1] | 2.19 ± 0.21 | 2.19 ± 0.24 |  |  |

| Sequence | protein stability index [1] | protein stability index [2] | protein stability index [3] | protein stability index [4] |
| --- | --- | --- | --- | --- |
| NDFWRIEVVNRKFGNRIKVLRSRI [POMT2] | 2.19 ± 0.6 | 2.17 ± 0.48 |  |  |
| KNWRNFASKWGMSYDELCFLEQRP [EDARADD] | 2.06 ± 0.18 | 2.02 ± 0.23 |  |  |
| SPDILEEKHCEFKQLALDHFKKTK [ATL3] | 4.79 ± 0.23 | 4.79 ± 0.12 |  |  |
| AEVSVISEADPQALLQAMKDLDGM [FBF1] | 4.52 ± 0.19 | 4.36 ± 0.2 |  |  |
| LEEKRLTWRLPDVSEAGGSGRLSA [FCHO1] | 4.37 ± 0.25 | 4.25 ± 0.044 |  |  |
| KPEEPPQNLLREKIMKLPLPESLK [PCMTD1] | 4.57 ± 0.43 | 4.76 ± 0.13 |  |  |
| GADGVMRTMAPEKLLKSMPILQGQ [SNAP91] | 3.76 ± 0.32 | 3.77 ± 0.28 |  |  |
| PKVSDQALVSAHSEWQRKLEAAEA [DMRTC1] | 4.54 ± 0.23 | 4.66 ± 0.29 |  |  |
| YCVPRGNRRRFRVRQPILQYRWDM [BEX1] | 2.46 ± 0.21 | 2.55 ± 0.17 |  |  |
| SSAVSGVKEWFGLGGEQAEEKAFE [MIA2] | 5.09 ± 0.43 | 5.04 ± 0.19 |  |  |
| EITTQFLIYASYFALIAVVFLASG [SLC19A2] | 3.12 ± 0.9 | 3.33 ± 0.31 |  |  |
| TAQSTFNDLQDLREQILRVKDTDD [RAP1B] | 5.01 ± 0.31 | 4.97 ± 0.27 |  |  |
| SCLLLQLRREKPSEEMVKMVLSRP [INTS3] | 2.64 ± 0.67 | 2.42 ± 0.34 |  |  |
| RAPAEKPRGARCSNGFPERDPPRP [GCH1] | 4.2 ± 0.3 | 4.43 ± 0.17 |  |  |
| SSDSVGGFRYSERYDPEPKSKWDE [CLINT1] | 4.98 ± 0.29 | 4.95 ± 0.091 |  |  |
| GGSRGAPGLLMAVGQDLYCYSYS [DCAF4] |  |  | 3.16 ± 0.42 | 3.1 ± 1.5 |
| LVELLQPFKQVAEMLSASRYPTIS [ZBED1] | 2.65 ± 0.66 | 2.29 ± 0.57 |  |  |
| MFIPETKGCSLEQISMELAKVNYV [SLC2A12] | 2.33 ± 0.62 | 2.39 ± 0.31 |  |  |
| ELVALIPHSDQRLRPQRTKQYVLL [TMEM106C] | 2.02 ± 0.33 | 2.17 ± 0.22 |  |  |
| QKLYVRLFQRKLSWIKMTKLEYEE [FAN1] | 2.63 ± 1.1 | 2.44 ± 0.6 |  |  |

Source: the supplement of paper PMC10567573
